Experiments:
[1] = target: Notch3-EGF/Fc fusion protein (human) (UniProt Q9UM47); experiment: ELISA, hybridoma supernatant on coated Notch3-EGF/Fc (0.1 ug/ml); control beside 255A-77
[2] = target: T1, Notch3-LD/Fc fusion protein (human, UniProt Q9UM47 1378-1640); experiment: ELISA, hybridoma supernatant on coated Notch3-LD/Fc (0.1 ug/ml); control beside 256A-13
T1 construct: A signal peptide was linked to the N-terminus (not identified, left out); not described; also called Notch3/Fc fusion protein
T1 sequence: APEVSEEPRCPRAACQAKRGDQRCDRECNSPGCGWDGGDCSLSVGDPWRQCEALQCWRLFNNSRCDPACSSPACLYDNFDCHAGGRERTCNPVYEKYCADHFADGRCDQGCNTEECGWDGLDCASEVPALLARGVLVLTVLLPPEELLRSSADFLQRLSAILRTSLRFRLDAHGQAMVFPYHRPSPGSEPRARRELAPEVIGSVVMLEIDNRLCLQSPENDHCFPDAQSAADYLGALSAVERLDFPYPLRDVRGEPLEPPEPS

[3] = target: Notch3-EGF/Fc fusion protein (human) (UniProt Q9UM47); experiment: ELISA, hybridoma supernatant on coated Notch3-EGF/Fc (0.1 ug/ml); control beside 255A-71
[4] = target: human Notch3 (full-length) (human) (UniProt Q9UM47); experiment: FACS on 293T cells transiently transfected with Notch3/Hygromycin
[5] = target: human Notch3 (full-length) (human) (UniProt Q9UM47); experiment: FACS on Sup-T1 cells (native Notch3)
Notch3-LDTM/V5 = target: T2, Notch3-LDTM/V5 (human, UniProt Q9UM47 1378-1664, limits assumed); experiment: cell-based FMAT assay on cells expressing Notch3-LDTM
T2 construct: not shown: V5 tag at the C-terminus
T2 sequence: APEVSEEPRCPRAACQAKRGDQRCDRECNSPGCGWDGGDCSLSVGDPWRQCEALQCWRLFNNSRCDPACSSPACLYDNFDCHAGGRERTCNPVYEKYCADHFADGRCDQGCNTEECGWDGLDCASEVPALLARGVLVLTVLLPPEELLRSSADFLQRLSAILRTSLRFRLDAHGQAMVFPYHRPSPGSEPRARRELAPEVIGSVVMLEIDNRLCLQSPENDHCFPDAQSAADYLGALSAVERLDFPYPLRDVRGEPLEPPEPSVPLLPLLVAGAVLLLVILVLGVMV
Procedure: Cell-based antibody-binding was assessed using FMAT™ 8100 HTS System (Applied Biosystems, Foster City, Calif.) and protocol provided by the manufacturer with some modification. Cell lines expressing Notch3 were seeded in 96-well plates at a density of 30,000-50,000 cells per well. After 20-24 hours, anti-Notch3 mAbs and 1×PBS reaction buffer were added to the wells and incubated for one hour at 37° C. Cy-5-conjugated anti-mouse IgG antibody was added to the wells after removal of primary antibodies. The fluorescent intensity of bound antibody was measured by FMAT™ 8100 HTS System.

[6] = target: T1, Notch3-LD/Fc fusion protein; experiment: Western blot, denaturing conditions
Procedure: Western blot was performed to assess anti-Notch3 mAbs binding activity to Notch3 under denaturing condition. For this purpose, purified Notch3-EGF/Fc and Notch3-LD/Fc fusion proteins were combined with protein loading buffer (BioRad, Hercules, Calif.). Protein samples were also prepared from the transiently or stably transfected cells described in Example 1, which were harvested from culture dishes, washed once with phosphate buffered saline (PBS), resuspended in deionized water, and heated at 100° C. for 10 minutes after adding equal volume of 2× protein sample loading buffer (BioRad, Hercules, Calif.). All samples were separated by electrophoresis in a 4-15% gradient SDS-PAGE (BioRad, Hercules, Calif.). The proteins were transferred from gel to PVDF membrane (BioRad, Hercules, Calif.) and anti-Notch3 mAbs were applied to the Western blot membrane as the primary detection antibody. An HRP-conjugated secondary antibody was used for detection and the signal generated using a Supersignal Chemiluminescent Substrate (Pierce, Rockford, Ill.) as described above.

Chain of human Notch3 (full-length) (human) (Q9UM47 40-2321 A2223V limits assumed): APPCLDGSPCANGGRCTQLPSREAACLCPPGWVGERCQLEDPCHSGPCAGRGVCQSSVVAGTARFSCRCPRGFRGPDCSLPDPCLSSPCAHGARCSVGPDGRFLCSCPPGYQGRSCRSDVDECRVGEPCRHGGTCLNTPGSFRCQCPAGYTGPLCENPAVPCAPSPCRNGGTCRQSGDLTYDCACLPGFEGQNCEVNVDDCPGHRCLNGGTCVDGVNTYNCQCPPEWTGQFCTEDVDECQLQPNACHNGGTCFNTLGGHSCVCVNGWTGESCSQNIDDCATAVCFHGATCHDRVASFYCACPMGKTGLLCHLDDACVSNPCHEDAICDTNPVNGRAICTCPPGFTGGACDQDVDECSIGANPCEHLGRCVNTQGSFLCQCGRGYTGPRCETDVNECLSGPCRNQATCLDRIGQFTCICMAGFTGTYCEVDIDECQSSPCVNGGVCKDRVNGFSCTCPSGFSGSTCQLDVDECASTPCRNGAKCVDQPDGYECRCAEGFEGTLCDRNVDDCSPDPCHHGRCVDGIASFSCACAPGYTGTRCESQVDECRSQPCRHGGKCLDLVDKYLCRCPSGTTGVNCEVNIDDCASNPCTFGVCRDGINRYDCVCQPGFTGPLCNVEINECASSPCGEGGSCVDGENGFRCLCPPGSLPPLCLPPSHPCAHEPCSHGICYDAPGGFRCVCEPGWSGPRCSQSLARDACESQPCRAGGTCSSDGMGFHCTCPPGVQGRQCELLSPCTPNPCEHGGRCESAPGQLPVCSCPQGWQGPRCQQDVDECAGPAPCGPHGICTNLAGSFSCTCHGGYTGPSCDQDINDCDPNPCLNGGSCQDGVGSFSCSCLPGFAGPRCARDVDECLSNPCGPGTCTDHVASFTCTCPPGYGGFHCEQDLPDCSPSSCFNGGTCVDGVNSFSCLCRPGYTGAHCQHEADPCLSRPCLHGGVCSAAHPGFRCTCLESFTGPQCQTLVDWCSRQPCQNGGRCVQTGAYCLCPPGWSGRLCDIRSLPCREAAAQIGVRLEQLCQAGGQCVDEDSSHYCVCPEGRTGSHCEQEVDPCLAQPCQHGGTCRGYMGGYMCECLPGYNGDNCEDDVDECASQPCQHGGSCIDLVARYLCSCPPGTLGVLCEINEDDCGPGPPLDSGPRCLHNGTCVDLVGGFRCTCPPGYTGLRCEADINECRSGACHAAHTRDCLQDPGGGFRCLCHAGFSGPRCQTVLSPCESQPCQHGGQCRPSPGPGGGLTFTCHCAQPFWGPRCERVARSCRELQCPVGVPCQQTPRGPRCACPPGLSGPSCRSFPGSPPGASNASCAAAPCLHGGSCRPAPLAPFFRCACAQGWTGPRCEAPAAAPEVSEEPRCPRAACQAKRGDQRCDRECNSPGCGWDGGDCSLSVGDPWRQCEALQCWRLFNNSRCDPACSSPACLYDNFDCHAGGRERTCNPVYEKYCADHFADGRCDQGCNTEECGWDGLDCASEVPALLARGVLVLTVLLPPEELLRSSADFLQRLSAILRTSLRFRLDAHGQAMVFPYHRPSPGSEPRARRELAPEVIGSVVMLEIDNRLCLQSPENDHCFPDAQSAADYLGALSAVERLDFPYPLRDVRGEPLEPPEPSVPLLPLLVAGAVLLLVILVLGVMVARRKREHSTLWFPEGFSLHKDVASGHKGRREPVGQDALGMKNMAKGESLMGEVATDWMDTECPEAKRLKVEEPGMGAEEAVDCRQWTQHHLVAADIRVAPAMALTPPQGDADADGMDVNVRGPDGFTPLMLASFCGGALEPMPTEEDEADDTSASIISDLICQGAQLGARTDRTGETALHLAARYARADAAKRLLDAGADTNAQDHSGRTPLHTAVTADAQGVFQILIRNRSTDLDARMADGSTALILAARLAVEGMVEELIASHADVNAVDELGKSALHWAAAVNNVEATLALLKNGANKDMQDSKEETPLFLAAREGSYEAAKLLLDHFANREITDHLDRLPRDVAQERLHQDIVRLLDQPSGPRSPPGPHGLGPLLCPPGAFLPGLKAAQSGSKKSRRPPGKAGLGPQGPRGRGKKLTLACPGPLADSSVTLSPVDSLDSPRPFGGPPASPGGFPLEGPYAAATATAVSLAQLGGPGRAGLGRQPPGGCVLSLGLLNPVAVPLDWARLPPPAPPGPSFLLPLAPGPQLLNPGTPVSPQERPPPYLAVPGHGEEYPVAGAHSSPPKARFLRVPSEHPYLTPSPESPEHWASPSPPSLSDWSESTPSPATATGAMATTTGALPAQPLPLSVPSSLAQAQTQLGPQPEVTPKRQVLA
Chain of Notch3-EGF/Fc fusion protein (human) (Q9UM47 43-1377): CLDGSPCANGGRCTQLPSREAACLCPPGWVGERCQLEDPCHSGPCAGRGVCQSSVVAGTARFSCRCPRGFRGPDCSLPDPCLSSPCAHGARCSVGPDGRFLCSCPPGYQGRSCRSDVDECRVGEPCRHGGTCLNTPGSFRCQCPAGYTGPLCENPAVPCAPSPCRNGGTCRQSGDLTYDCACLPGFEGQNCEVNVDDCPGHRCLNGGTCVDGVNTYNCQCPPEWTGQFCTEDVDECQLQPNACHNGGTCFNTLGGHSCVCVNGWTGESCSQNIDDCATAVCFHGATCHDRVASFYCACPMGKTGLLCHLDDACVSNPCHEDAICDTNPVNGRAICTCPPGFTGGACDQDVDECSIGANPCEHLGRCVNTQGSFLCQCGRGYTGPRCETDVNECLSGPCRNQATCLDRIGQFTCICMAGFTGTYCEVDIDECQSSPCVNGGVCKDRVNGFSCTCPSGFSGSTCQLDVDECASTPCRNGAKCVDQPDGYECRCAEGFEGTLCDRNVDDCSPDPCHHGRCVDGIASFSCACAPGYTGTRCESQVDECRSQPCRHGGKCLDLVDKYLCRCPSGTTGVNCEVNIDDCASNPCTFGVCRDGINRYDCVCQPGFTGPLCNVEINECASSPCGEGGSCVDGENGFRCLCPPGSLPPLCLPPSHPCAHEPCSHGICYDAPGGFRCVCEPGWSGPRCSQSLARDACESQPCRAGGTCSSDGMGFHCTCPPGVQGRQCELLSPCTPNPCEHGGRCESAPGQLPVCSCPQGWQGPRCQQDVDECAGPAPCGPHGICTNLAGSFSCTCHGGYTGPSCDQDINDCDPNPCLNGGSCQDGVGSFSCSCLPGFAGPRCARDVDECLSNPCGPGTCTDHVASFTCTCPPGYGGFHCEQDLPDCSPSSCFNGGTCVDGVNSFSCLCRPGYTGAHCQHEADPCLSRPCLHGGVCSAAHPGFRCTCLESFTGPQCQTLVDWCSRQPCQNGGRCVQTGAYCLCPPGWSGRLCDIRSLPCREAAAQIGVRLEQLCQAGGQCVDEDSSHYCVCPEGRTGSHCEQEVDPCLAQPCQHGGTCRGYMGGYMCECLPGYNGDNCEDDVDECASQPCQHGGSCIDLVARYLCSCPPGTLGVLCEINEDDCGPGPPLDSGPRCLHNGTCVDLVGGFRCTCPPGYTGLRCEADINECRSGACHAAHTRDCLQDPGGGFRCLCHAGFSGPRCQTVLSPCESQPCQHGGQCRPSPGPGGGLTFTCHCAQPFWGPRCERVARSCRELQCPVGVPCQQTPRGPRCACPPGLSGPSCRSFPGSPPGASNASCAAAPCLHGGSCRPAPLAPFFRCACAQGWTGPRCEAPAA

Control hybridoma supernatant (antibody)
ELISA OD at 450 nm (mean) [1]: 0.019 OD
ELISA OD at 450 nm (mean) [2]: 0.019 OD
ELISA OD at 450 nm (mean) [3]: 0.01 OD

Control IgG1 (antibody)
mean fluorescence intensity [4]: 24.2 MFI
mean fluorescence intensity [5]: 24.5 MFI

B1: anti-Notch 3 monoclonal antibody mAb 255A-71 (antibody, V domains shown)
VH: DVQLQESGPGLVKPSQSLSLTCSVTGYSITSGYYWNWIRQFPGNKLEWMGFISYDGSNNYNPSLKNRISITRDTSKNQFFLKLNSVTTEDTATFYCATLYYDYDGNYFDYWGQGTTLTVSS
VL: CDIQMTQTTSSLSASLGDRVTISCRTSQDISNYLNWYQQKPDGTVKLLIYYTSRLHSGVPSRFSGSGSGTDYSLTISNLEQEDIATYFCQQGNALPLTFGPGTKLELKR
notes: Mouse hybridoma mAb raised against Notch3-EGF/Fc
binding result (Notch3-LDTM/V5): no binding
binding result [6]: no binding

B2: anti-Notch 3 monoclonal antibody mAb 255A-77 (antibody, V domains shown)
VH: QVQLQQSGDDLVKPGASVKLSCKASGYTFTSYWINWIKQRPGQGLEWIGHIGPGSGSTYYNEIFKGKATLTVDTSSSTAYIQLSSLSSEDSAVYFCVLTRYFYAMDYWGQGTSVTVSS
VL: DIVMTQSPSSLAVTAGEKVTMRCKSSQSLLWSVNQNNYLSWYQQKQGQPPKLLIYGASIRESWVPDRFTGSGSGTDFTLTISNVHVEDLAVYYCQHNHGSFLPLTFGAGTKLELKR
notes: as for B1
binding result (Notch3-LDTM/V5): no binding
binding result [6]: no binding
